In US20070136889A1 (CROPDESIGN N V, published 2007):
Changes are numbered by the printed parent chain. In names and notes the source's numbering stands.

Experiments:
[1] = molecular target: T1, GAL4 DNA-binding domain only (plasmid pGBT9) (UniProt P04386 1-147); test: yeast two-hybrid, his3 reporter, control with empty pGBT9
T1 construct: Negative control of the two-hybrid assay; also called empty pGBT9 vector
Method: The need for this C-terminal domain for the interaction with CDC2At was assayed using the two-hybrid system. A gene encoding a truncated CKS1At protein was created by mutating the Tyr73 codon to a stop codon, thereby deleting the last 15 amino acids. Subsequently, this mutated gene was cloned in frame with the GAL4 activation domain, resulting in the pGADCDSQ plasmid. This vector was introduced into the HF7c yeast reporter strain, together with pGBTCDC2A or the empty pGBT9 vector. […] Therefore, this part of the CKS1At protein might be involved in the interaction with other proteins or may improve the stability of the CDK-CKS1At interaction.

[2] = molecular target: T2, GAL4 DNA-binding domain-CDC2aAt fusion protein encoded by pGBTCDC2A (Arabidopsis thaliana, UniProt P04386 1-147; P24100 1-294); test: yeast two-hybrid, his3 reporter, control with GAL4 activation domain only
T2 construct: Two-hybrid bait

CDC2aAt protein = molecular target: T3, CDC2aAt protein (Arabidopsis thaliana, UniProt P24100 1-294); test: co-immunoprecipitation with the CKS1At antibody from extracts of G1/S cells, blot probed with the CDC2aAt antibody
T3 construct: Endogenous protein in extracts of partially synchronized Arabidopsis cell suspensions
T3 sequence (P24100 whole entry): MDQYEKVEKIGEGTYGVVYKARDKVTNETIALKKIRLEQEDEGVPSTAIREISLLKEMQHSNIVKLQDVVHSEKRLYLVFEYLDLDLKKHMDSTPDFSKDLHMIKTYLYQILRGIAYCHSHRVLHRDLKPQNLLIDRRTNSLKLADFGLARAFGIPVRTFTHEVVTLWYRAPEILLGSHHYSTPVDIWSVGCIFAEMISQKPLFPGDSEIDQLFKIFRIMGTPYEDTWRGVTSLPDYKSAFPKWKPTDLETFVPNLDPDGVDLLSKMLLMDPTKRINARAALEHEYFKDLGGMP
Method: Arabidopsis thaliana cell suspensions were partially synchronized by the addition of aphidicolin to freshly diluted cell suspension cells. After 24 hours the drug was washed away and cells were cultivated in new medium. Samples were collected at several time points and partly used for nuclei preparation, partly for protein extraction. […] The CKS1At containing complexes were precipitated with the use of a CKS1At specific antibody (see example 9 of this application). These complexes were resolved on a SDS PAGE gel and immunoblotted. The presence of CDC2aAt as a component of the immuno-precipitated complexes was verified by probing this blot with a CDC2aAt specific antibody. This antibody detected a specific band of the correct molecular size in the extracts of the G1/S cells.

[3] = molecular target: T4, GAL4 DNA-binding domain-CDC2bAt fusion protein encoded by pGBTCDC2B (Arabidopsis thaliana, UniProt P04386 1-147; P25859 1-309); test: yeast two-hybrid, his3 reporter
T4 construct: Two-hybrid bait
Method: The recently published structure of the human CDK2 protein in complex with the human CKS1At homologue CKSHs1 helped to identify the amino-acids in the CKS/SUC1 proteins important for interaction with CDKs. Based upon this information the E61 residue of CKS1At was mutated into Q61 by PCR. The consequences of this mutation upon the binding affinity for CDC2aAt and CDC2bAt were tested with the use of a two-hybrid system utilizing the his3 gene as reporter gene. The coding region of both the wild type CKS1At and the mutated CKS1At.Q61 gene was cloned in frame with the GAL4 activation domain in the pGAD424 vector, resulting in the pGADCKS and pGADCKS.Q61 respectively. These vectors were used to cotransform the HF7c yeast cells with pGBTCDC2A or pGBTCDC2B. The pGBTCDC2A and pGBTCDC2B vectors encode for a fusion protein between the GAL4 DNA-binding domain and CDC2aAt or CDC2bAt respectively. The transformants were plated on selective medium in the absence of histidine to test the interactions between CKS1At and CKS1At.Q61 with CDC2aAt and CDC2bAt. Transformants were also streaked on medium containing 10, 20, 40, 80 or 160 mM 3-amino-1,2,4-triazole (3-AT). 3-AT acts as a competitive inhibitor of the his3 gene product.

B1: GAL4 activation domain fused to truncated CKS1At lacking the last 15 amino acids, encoded by pGADCKSQ (other, not shown: large carriers)
chain: MGQIQYSEKYFDDTFEYRHVVLPPEVAKLLPKNRLLSENEWRAIGVQQSRGWVHYAVHRPEPHIMLFRRPLN
notes: Tyr73 codon mutated to a stop codon, deleting the last 15 amino acids; also called pGADCDSQ; truncated CKS1At protein
- binding result [1]: no binding

B2: GAL4 activation domain only (vector pGAD424) (other, UniProt P04386 768-881, looked up)
chain: ANFNQSGNIADSSLSFTFTNSSNGPNLITTQTNSQALSQPIASSNVHDNFMNNEITASKIDDGNNSKPLSPGWTDQTAYNAFGITTGMFNTTTMDDVYNYLFDDEDTPPNPKKE
notes: Negative control of the two-hybrid assay
- binding result [2]: no binding

B3: CKS1At protein (CDK-associating subunit from Arabidopsis thaliana) (other)
chain: MGQIQYSEKYFDDTFEYRHVVLPPEVAKLLPKNRLLSENEWRAIGVQQSRGWVHYAVHRPEPHIMLFRRPLNYQQQQENQAQNMLVK
notes: also called wild type CKS1At
- binding result (CDC2aAt protein): binds

B4: GAL4 activation domain-CKS1At.Q61 fusion protein encoded by pGADCKS.Q61 (other, not shown: large carriers; small tags and cut ends)
chain: B3 chain with E61Q
notes: Two-hybrid prey with the E61 residue of CKS1At mutated into Q61; also called CKS1At mutant E61Q
- binding result [3]: no binding
